Experimental data reported in article PMC3290565, “Pentachlorophenol Induction of the Pseudomonas aeruginosa mexAB-oprM Efflux Operon: Involvement of Repressors NalC and MexR and the Antirepressor ArmR”.

Experiments:
NalC-His [1] = biological target: T1, NalC-His (Pseudomonas aeruginosa K767, UniProt Q9HXS0 1-213); assay: EMSA; 300-2000 ng NalC-His, 40 ng DNA; settings: protein: recombinant; tags: C-terminal His (pET23a); chain copies: 2; blunt
NalC-His [2] = biological target: T1, NalC-His; assay: EMSA; data not shown; settings: protein: recombinant; tags: C-terminal His (pET23a); chain copies: 2

B1: NalC-1 (endpoints III) (dsDNA)
DNA 1: TGGTCATTTAAGAACTGTATCGTACAGTACTGTTTTGGCAA
DNA 2: TTGCCAAAACAGTACTGTACGATACAGTTCTTAAATGACCA
NalC-His [1]
  binding result: binds

B2: NalC-2 (endpoints IV) (dsDNA)
DNA 1: TTGGCAAGCACTTCCGCTCATTCCTCCGCCTTGCCTCCCGC
DNA 2: GCGGGAGGCAAGGCGGAGGAATGAGCGGAAGTGCTTGCCAA
NalC-His [1]
  binding result: no binding

B3: 21-bp inverted repeat only (dsDNA)
DNA 1: AGAACTGTATCGTACAGTACT
DNA 2: AGTACTGTACGATACAGTTCT
NalC-His [2]
  binding result: no binding
